What was measured:
MtrA~P = target: T1, MtrA~P (UniProt P9WGM7); test: EMSA; details: 50 mM Tris-HCl pH 7.5, 50 mM NaCl, 10 mM MgCl2, 10 mM CaCl2, poly dI/dC and sheared salmon sperm DNA (1 ug), 37 C 15 min; 200 fmol DNA, 1-10 uM protein; 5% …
T1 sequence: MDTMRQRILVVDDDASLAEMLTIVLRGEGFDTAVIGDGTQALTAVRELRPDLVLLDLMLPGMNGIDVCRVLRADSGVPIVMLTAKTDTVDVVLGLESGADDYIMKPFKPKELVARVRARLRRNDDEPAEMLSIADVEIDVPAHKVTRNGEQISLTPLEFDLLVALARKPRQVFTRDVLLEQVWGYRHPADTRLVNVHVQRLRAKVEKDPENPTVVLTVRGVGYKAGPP

MtrA (unphosphorylated) = target: T2, MtrA (unphosphorylated) (UniProt P9WGM7); test: EMSA; details: 50 mM Tris-HCl pH 7.5, 50 mM NaCl, 10 mM MgCl2, 10 mM CaCl2, […]
T2 sequence: T1 sequence

| Sequence | binding (MtrA~P) | binding (MtrA (unphosphorylated)) |
| --- | --- | --- |
| CTGTGCAGAGTAGGTGATCGGCGGCCCGACCGCGAGGAGCCGCGCTGTGACTGGCGGGACGAAAGTTACAGATGAAGATATTTGCGTCCGGTGTCGGTGAGCACGCTGCGCAGGATGGTTTCGATGGTGTCGAACTCGGGCTGTCCGCTAATCAGCGGGGGAGCCACCTGGACGACGGGGTCCCCGCGGTCGTCGGTG (double strand) [PdacB1] | binds | – |
| TCGACTCAGATCTCCTAGGGCTCAACTCGGAGGGACAGCGCAGGTCAACGCCAACGACACCACAAGCATCATTTGCACCGTACGTCACATCTGACGCTATGGAAACGTAAGTCACAAACTGCCCCCGGTACGTGCGACTAATGTGACCCAACGGTGACCTCGCGCGTTTGCCGCAAACAACCGCCCGGTTAGCGCGGCAA (double strand) [PripA] | binds | binds |

From paper PMC6265350
